Results taken from PMC8405992 (2021).
Blank lines part the entries; values can stand above or below the binder they belong to.

Legend:
Test in all cases: NMR titration
[1] = molecular target: K11-linked diubiquitin (Homo sapiens, UniProt P0CG48)
[2] = molecular target: T1, Ubp6-UBL 2-81 (Saccharomyces cerevisiae, UniProt P43593)
T1 chain: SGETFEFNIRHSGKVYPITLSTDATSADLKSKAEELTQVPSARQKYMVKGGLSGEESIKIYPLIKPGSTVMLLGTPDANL

[3] = molecular target: T2, Dsk2-UBL 2-77 (Saccharomyces cerevisiae, UniProt P48510)
T2 chain: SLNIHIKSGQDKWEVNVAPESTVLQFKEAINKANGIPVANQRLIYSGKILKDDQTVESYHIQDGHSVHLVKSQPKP

[4] = molecular target: K48-linked diubiquitin (Homo sapiens, UniProt P0CG48)

Kd [1]: 42 µM
B1: Rpn1 214-324 (protein)
chain: HNGEEDAVDLLLEIESIDKLPQFVDENTFQRVCQYMVACVPLLPPPEDVAFLKTAYSIYLSQNELTDAIALAVRLGEEDMIRSVFDATSDPVMHKQLAYILAAQKTSFEYE
modifications: K11-linked Ub2, distal Ub 15N-enriched

Kd [2]: 104 µM
Kd [3]: 48 µM
B2: Rpn1 214-355 (protein)
chain: HNGEEDAVDLLLEIESIDKLPQFVDENTFQRVCQYMVACVPLLPPPEDVAFLKTAYSIYLSQNELTDAIALAVRLGEEDMIRSVFDATSDPVMHKQLAYILAAQKTSFEYEGVQDIIGNGKLSEHFLYLAKELNLTGPKVPE

Kd [4]: 288 µM
B3: Rpn1 214-355 (protein)
chain: B2 chain
modifications: K48-linked Ub2, distal Ub 15N-enriched

Kd [1]: 44 µM
B4: Rpn1 214-355 (protein)
chain: B2 chain
modifications: K11-linked Ub2, distal Ub 15N-enriched
